Consider 39 sequences from the supplement of paper PMC7877785.

± gives the uncertainty stated by the source.

The nature of this series: self-splicing fitness, log relative to wild type (ln ratio); higher = more splicing; Tetrahymena group I intron in knt gene, E. coli kanamycin selection, DiMSum; sequences stand for … in CUCUCU…GGAGGGAAAAGUUAUCAGGCAUGCACCUGGUAGCUAGUCUUUAAACCAAUAGAUUGCAUCGGUUUAAAAGGCAAGACCGUCAAAUUGCGGGAAAGGGGUCAACAGCCGUUCAGUACCAAGUCUCAGGGGAAACUUUGAGAUGGCCUUGCAAAGGGUAUGGUAAUAAGCUGACGGACAUGGUCCUAACCACGCAGCCAAGUCCUAAGUCAACAGAUCUUCUGUUGAUAUGGAUGCAGUUCACAGACUAAAUGUCGGUCGGGGAAGAUGUAUUCUUCUCAUAAGAUAUAGUCGGACCUCUCCUUAAUGGGAGCUAGCGGAUGAAGUGAUGCAACACUGGAGCCGCUGGGAACUAAUUUGUAUGCGAAAGUAUAUUGAUUAGUUUUGGAGUACUCGUGGUCG
Put shortly:
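Colonies from six replicate transformations of E. coli BL21(DE3) were pooled and amplicon-sequenced on an Illumina HiSeq 2500. The library placed an intron with all eight P1ex-region nucleotides randomised inside the knt kanamycin-resistance gene on pET-22b(+), and cells grew overnight at 37°C or 30°C on LB agar with or without 25 μg/mL kanamycin (plus 100 μg/mL carbenicillin, 50 μM IPTG, 0.2% rhamnose). Fitness is the DiMSum error-weighted combination of wild-type-normalised replicate fold changes, kanamycin versus none.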

With CUUGAGCAAUAUUACGCCCG, the “self-splicing fitness (ln)” value (30 °C) is -2.41 ± 0.46.
Regarding ACGUAGCAAUAUUACGUGGU, the “self-splicing fitness (ln)” value (30 °C) is -4.03 ± 0.18 and the “self-splicing fitness (ln)” value (37 °C) is -1.13 ± 0.094.
For AGUCAGCAAUAUUACGGAUC, in that order: -0.312 ± 0.11 and -0.438 ± 0.2.
For CACCAGCAAUAUUACGAUUU, in that order: -3.36 ± 0.15 and -1.52 ± 0.13.
Turning to CUCUAGCAAUAUUACGUAGG, the “self-splicing fitness (ln)” value was -2.83 ± 0.18 (30 °C) and -1.9 ± 0.22 (37 °C).
On to UAAUAGCAAUAUUACGAUUU, for which the “self-splicing fitness (ln)” value was -2 ± 0.11 (30 °C) and -1.13 ± 0.11 (37 °C).
Consider GAAUAGCAAUAUUACGAUAG, for which the “self-splicing fitness (ln)” value reads like this: (30 °C) -0.707 ± 0.15; (37 °C) -1.47 ± 0.22.
With AUCCAGCAAUAUUACGGGCU, the “self-splicing fitness (ln)” value is -3.07 ± 0.16 (30 °C) and -2.64 ± 0.17 (37 °C).
In the case of GGGGAGCAAUAUUACGUAGU, the “self-splicing fitness (ln)” value (37 °C) is -1.53 ± 0.37.
Take UAAGAGCAAUAUUACGACCC: the “self-splicing fitness (ln)” value (30 °C) is -2.18 ± 0.37.
In the case of UGAUAGCAAUAUUACGGGUG, the “self-splicing fitness (ln)” value was -1.56 ± 0.099 (30 °C) and -0.678 ± 0.11 (37 °C).
AGCCAGCAAUAUUACGCUAC: the “self-splicing fitness (ln)” value reads like this: (30 °C) -2.52 ± 0.18; (37 °C) -0.749 ± 0.17.
For CCCGAGCAAUAUUACGUCUA, in that order: -3.33 ± 0.2 and -2.42 ± 0.22.
For GAGGAGCAAUAUUACGGUCU, in that order: -3.51 ± 0.48 and -0.511 ± 0.21.
For ACCUAGCAAUAUUACGCCCA, in that order: -1.16 ± 0.11 and -0.343 ± 0.12.
Consider CAAUAGCAAUAUUACGCAAG, for which the “self-splicing fitness (ln)” value is -1.19 ± 0.1 (30 °C) and -0.905 ± 0.14 (37 °C).
On the same counts, the results for GUUAAGCAAUAUUACGCGGA are -0.996 ± 0.27 and -0.987 ± 0.2.
For GAUCAGCAAUAUUACGGAGU, in that order: -1.16 ± 0.077 and -0.717 ± 0.11.
For ACCUAGCAAUAUUACGGAUC, in that order: -2.65 ± 0.13 and -1.35 ± 0.15.
Turning to UCCUAGCAAUAUUACGGAUC, the “self-splicing fitness (ln)” value was -3.39 ± 0.23 (30 °C) and -2.53 ± 0.26 (37 °C).
On the same counts, the results for AGUUAGCAAUAUUACGGCAC are -1.47 ± 0.16 and -1.82 ± 0.25.
Turning to GUUCAGCAAUAUUACGGGCA, under “37 °C”, the “self-splicing fitness (ln)” value was -1.11 ± 0.34.
Turning to UCCGAGCAAUAUUACGGAGC, the “self-splicing fitness (ln)” value by setting is: (30 °C) -3.17 ± 0.25; (37 °C) -2.67 ± 0.26.
For UGAGAGCAAUAUUACGCGUG, in that order: -2.82 ± 0.24 and 0.21 ± 0.21.
For AUAGAGCAAUAUUACGUGAG, in that order: -3.77 ± 0.21 and -2.42 ± 0.14.
On the same counts, the results for UUCCAGCAAUAUUACGUCCG are -2.28 ± 0.18 and 0.24 ± 0.2.
In the case of GCUAAGCAAUAUUACGACUC, the “self-splicing fitness (ln)” value by setting is: (30 °C) 0.21 ± 0.098; (37 °C) 0.379 ± 0.14.
With UGGAAGCAAUAUUACGUAGC, the “self-splicing fitness (ln)” value reads like this: (30 °C) -2.29 ± 0.21; (37 °C) -0.661 ± 0.24.
Turning to AAGAAGCAAUAUUACGGAAA, the “self-splicing fitness (ln)” value by setting is: (30 °C) -2.17 ± 0.19; (37 °C) -1.72 ± 0.2.
On the same counts, the results for GUAUAGCAAUAUUACGUGGU are -3.14 ± 0.23 and -1.29 ± 0.15.
For GGACAGCAAUAUUACGACGU, in that order: -0.177 ± 0.06 and 0.587 ± 0.075.
Consider CUCUAGCAAUAUUACGGAAC, for which the “self-splicing fitness (ln)” value (30 °C) was -2.81 ± 0.47.
For the sequence CCGCAGCAAUAUUACGGACG, the “self-splicing fitness (ln)” value was -2.13 ± 0.1 (30 °C) and -0.204 ± 0.11 (37 °C).
For UCCCAGCAAUAUUACGACCU, in that order: -2.88 ± 0.27 and -1.69 ± 0.35.
For AAGUAGCAAUAUUACGACAC, in that order: -0.538 ± 0.19 and -0.726 ± 0.19.
AAUGAGCAAUAUUACGUCAA: the “self-splicing fitness (ln)” value is, setting by setting: (30 °C) -2.4 ± 0.21; (37 °C) -2.59 ± 0.46.
For CACCAGCAAUAUUACGUCCA, in that order: -3.43 ± 0.26 and -2.26 ± 0.2.
On the same counts, the results for UAUGAGCAAUAUUACGUAGG are -4.19 ± 0.34 and -2.41 ± 0.21.
Turning to GUGUAGCAAUAUUACGCCGC, the “self-splicing fitness (ln)” value is, setting by setting: (30 °C) -3 ± 0.46; (37 °C) -2.79 ± 0.44.
